The source of these data is patent US20260133210A1, “CELL-FREE BIOSENSORS FOR IN VITRO DETECTION OF TARGET MOLECULES” (priority 2022, published 2026).

The subject of data set [1] is cell-free protein synthesis. As to the kind of experiment: Titration of analyte against an unregulated reporter plasmid (pT7-sfGFP) in a cell-free reaction. The class given is biochemical, E. coli. To be noted: 100 μM CuSO4. As for the experimental part: A series of tuning experiments are next used to optimize the sensor. First, the optimal concentration of the aTF (CueR) is found for the non-cascaded sensor (e.g., pCue-sfGFP) through a series of ratiometric titrations between the aTF-enriched extract and the blank extract in both the presence and absence of analyte (see e.g., the data in FIG. 7). This experiment is an isothermal cell-free gene expression reaction held at 30° C. in a plate reader for […] using an established set of physiochemical conditions to maximize protein production in general. It may also be necessary to determine the concentration of analyte that saturates the cell-free sensor without inhibiting transcription and translation in vitro, which can be done with a simple titration of analyte against an unregulated reporter plasmid (e.g., pT7-sfGFP).

A further data set has as its system PbCl2. Kind of data set: Hand-validation of top PbrR variants from the SSM library screen. It is filed as biochemical, E. coli. To be noted: top 10 variants with the highest fold change from each lead concentration. The text has this: The top 10 variants with the highest fold change from each lead concentration were hand-validated to validate the results from the SSM library screen.

A further data set concerns lead. As to the kind of experiment: Enriched extract PbrR lead sensors. It is filed as biochemical, E. coli. To be noted: FIG. 40 and 41. The method, then:
Enriched extract is made by pre-expressing the transcription factor in the E. coli strain before lysing to generate the extract. […] It was also determined that a catechol reporter can be used for improved sensor output. This works by having the PbrR transcription factor bind to PbrO and drive expression of an enzyme that catalyzes a colorimetric change in catechol.

Substitutions are numbered along the chain they refer to. In names and notes the source's numbering stands.

mf-Lon: the “decay of sfGFP signal (protein degradation) on mixing extracts” value with pdt-tagged sfGFP is “Increasing the concentration of mf-Lon and supplying additional ATP (a co-substrate for the reaction) results in some signal decay”.
As for `O=S(=O)([O-])[O-].[Cu+2]` [CuSO4], the “effect on cell-free protein synthesis” value in data set [1] is listed as “shuts down cell-free protein synthesis”.

B1: M60F (protein)
chain: MNIQIGELAKRTACPVVTIRFYEQEGLLPPPGRSRGNFRLYGEEHVERLQFIRHCRSLDFPLSDVRTLLSYRKRPDQDCGEVNMLLDEHIRQVESRIGALLELKHHLVELREACSGARPAQSCGILQGLSDCVCDTRGTTAHPSD
modifications: Cupriavidus metallidurans
With B1, the “behaviour in the hand-validated SSM results” value in the data set with PbCl2 is given as “bind the promoter regardless of whether or not the ligand (lead) is present”.

B2: G128I, D64K, M60L, and P61N: quadruple variant of PbrR (SEQ ID NO: 47) (protein)
chain: B1 chain with F60L, P61N, D64K, G128I
modifications: Cupriavidus metallidurans
On to B2, for which, in the data set on lead, the “lead detection in enriched extract” value is reported as “can detect lead at the limit of detection”.

B3: M60L (protein)
chain: B1 chain with F60L
modifications: Cupriavidus metallidurans
Consider B3, for which, in the data set on PbCl2, the “behaviour in the hand-validated SSM results” value is “promising”.
